The values below come from PMC10814857, “Functional Classification and Interaction Selectivity Landscape of the Human SH3 Domain Superfamily” (Cells, 2024).

Like-named read-outs stand apart in the source and are kept apart here.

What is called Kd is the equilibrium constant for the complex coming apart. A higher Kd goes with a looser complex.

Holding throughout (test): FP
Assay [1] has as its target P3, fluorescein-labelled proline-rich peptide from the SOS1 proline-rich domain (human) (UniProt Q07889).
Assay [2] has as its target P7, fluorescein-labelled proline-rich peptide from the SOS1 proline-rich domain (human) (UniProt Q07889).
In assay [3] the target is P1, fluorescein-labelled proline-rich peptide from the SOS1 proline-rich domain (human) (UniProt Q07889).
Assay [4] has as its target P4, fluorescein-labelled proline-rich peptide from the SOS1 proline-rich domain (human) (UniProt Q07889).
In assay [5] the target is RP2, fluorescein-labelled reference peptide from the N-terminal extension of the RHO GTPase WRCH1/RHOU (human) (UniProt Q7L0Q8).
Sequence of RP2, fluorescein-labelled reference peptide from the N-terminal extension of the RHO GTPase WRCH1/RHOU (human) (Q7L0Q8 whole entry, looked up, the tested form may be a part): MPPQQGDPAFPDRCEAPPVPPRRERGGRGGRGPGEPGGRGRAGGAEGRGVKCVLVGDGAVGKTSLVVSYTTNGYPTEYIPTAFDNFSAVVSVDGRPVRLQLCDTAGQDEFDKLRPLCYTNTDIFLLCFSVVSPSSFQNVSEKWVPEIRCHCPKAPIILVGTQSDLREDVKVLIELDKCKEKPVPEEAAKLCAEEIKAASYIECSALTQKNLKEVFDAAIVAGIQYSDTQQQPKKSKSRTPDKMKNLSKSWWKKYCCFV
Assay [6] addresses P5, fluorescein-labelled proline-rich peptide from the SOS1 proline-rich domain (human) (UniProt Q07889).
For assay [7], the target named is RP1, fluorescein-labelled reference peptide, a SOS1 derivative encompassing part of P3 (human) (UniProt Q07889).
For assay [8], the target named is P2, fluorescein-labelled proline-rich peptide from the SOS1 proline-rich domain (human) (UniProt Q07889).

Sequence of CRK-1 SH3 domain, GST cleaved (P46108 127-301): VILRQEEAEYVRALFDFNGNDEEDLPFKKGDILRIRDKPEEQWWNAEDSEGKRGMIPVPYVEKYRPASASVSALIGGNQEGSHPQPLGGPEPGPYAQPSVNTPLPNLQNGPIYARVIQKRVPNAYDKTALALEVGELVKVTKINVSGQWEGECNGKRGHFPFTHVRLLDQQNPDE

With SRC, the dissociation constant (Kd) came out at 2 µM in assay [1] and 13.3 µM in assay [2].

With ITSN1-5, the equilibrium dissociation constant (Kd) in assay [3] turned out to be 23 µM; in assay [4] it was 12 µM; in assay [5] it was 23 µM.

On to GRB2-2, for which the equilibrium dissociation constant (Kd) in assay [1] stood at 12 µM; in assay [4] it was 20 µM; in assay [6], 35 µM; in assay [7], 3.4 µM.

For SH3PXD2A-1, the dissociation constant (Kd) was 44 µM in assay [8], 18 µM in assay [1] and 21 µM in assay [5].

Consider “CRK-1 SH3 domain, GST cleaved (from UniProt P46108)”, for which the dissociation constant Kd is 12.9 µM in assay [1] (domain or fragment) and 18.1 µM in assay [2] (domain or fragment).

In assay [2], SORBS1-1 showed a dissociation constant Kd of 13.2 µM. This lies in the double-digit micromolar range.

For the substance RIMBP3B-1, the Kd in assay [8] was 21 µM; in assay [2], 15 µM.

Consider ITSN1-1, for which the Kd in assay [4] stood at 6.6 µM; in assay [7], 39 µM; in assay [5], 11 µM.

As to GRB2-1, the Kd was 15 µM in assay [1], 60 µM in assay [4], 62 µM in assay [6] and 11 µM in assay [7].
